The values below come from patent publication US20120064176A1, “COMPOSITION FOR PREVENTING AND TREATING FATTY LIVER” (National Chung Hsing University, priority 2008, published 2012).

The test system of the assay is C57BL/6JNarl mice. Kind of assay: Hepatic triglycerides after 7 weeks of lactoferrin, chromium or lactoferrin+chromium in high-fat-diet mice. Format: in vivo. The settings on record: 10 mice in each group. On the procedure: Male C57BL/6JNarl mice (n=70) fed with high fat diet (high-fat Rodent TestDiet, PMI International Inc., MO, USA; 67% of calories provided by fat), age 8 weeks, are randomly divided into the control group, the low-dose lactoferrin group (NZMP lactoferrin, New Zealand, 40 mg/kg BW/day), the high-dose lactoferrin group (80 mg/kg BW/day), the low-dose chromium group (CrCl3·6H2O, Sigma, Cr^+3 40 μg/kg BW/day), the high dose chromium group (Cr^+3 80 μg/kg BW/day), the low-dose lactoferrin+chromium group (lactoferrin 40 mg/kg BW/day+Cr^+3 40 μg/kg BW/day), and the high-dose lactoferrin+chromium group (lactoferrin 80 mg/kg BW/day+Cr^+3 80 μg/kg BW/day) (10 mice in each group). After supplementation for 7 weeks, the C57BL/6JNarl mice are sacrificed and their livers are harvested. Then, the level of hepatic triglycerides is analyzed. […] However, no significant difference between the other groups is found.

B1: Lactoferrin: NZMP lactoferrin, New Zealand; a glycoprotein that is capable of combining with metal ions (protein, UniProt P24627 20-708, looked up)
Lactotransferrin: APRKNVRWCTISQPEWFKCRRWQWRMKKLGAPSITCVRRAFALECIRAIAEKKADAVTLDGGMVFEAGRDPYKLRPVAAEIYGTKESPQTHYYAVAVVKKGSNFQLDQLQGRKSCHTGLGRSAGWIIPMGILRPYLSWTESLEPLQGAVAKFFSASCVPCIDRQAYPNLCQLCKGEGENQCACSSREPYFGYSGAFKCLQDGAGDVAFVKETTVFENLPEKADRDQYELLCLNNSRAPVDAFKECHLAQVPSHAVVARSVDGKEDLIWKLLSKAQEKFGKNKSRSFQLFGSPPGQRDLLFKDSALGFLRIPSKVDSALYLGSRYLTTLKNLRETAEEVKARYTRVVWCAVGPEEQKKCQQWSQQSGQNVTCATASTTDDCIVLVLKGEADALNLDGGYIYTAGKCGLVPVLAENRKSSKHSSLDCVLRPTEGYLAVAVVKKANEGLTWNSLKDKKSCHTAVDRTAGWNIPMGLIVNQTGSCAFDEFFSQSCAPGADPKSRLCALCAGDDQGLDKCVPNSKEKYYGYTGAFRCLAEDVGDVAFVKNDTVWENTNGESTADWAKNLNREDFRLLCLDGTRKPVTEAQSCHLAVAPNHAVVSRSDRAAHVKQVLLHQQALFGKNGKNCPDKFCLFKSETKNLLFNDNTECLAKLGGRPTYEEYLGTEYVTAIANLKKCSTSPLLEACAFLTR
Regarding B1, the “Hepatic triglycerides, High-dose” value (High-dose: lactoferrin 80 mg/kg BW/day and/or Cr+3 80 μg/kg BW/day) is 18.1 ± 7.2 μ mol/g liver. For the same molecule, the “Hepatic triglycerides, Low-dose” value (Low-dose: lactoferrin 40 mg/kg BW/day and/or Cr+3 40 μg/kg BW/day) amounted to 18.4 ± 6.0 μ mol/g liver.
